Biological target: HLA-A*02:01 (Homo sapiens, UniProt P04439, D140Y/D185E/D98H/E176V/E277Q/G131W/G231S/I119V/I121R/I166T/I218V/L300P/L318F/N151K/N90K/P208A/P217A/Q86G/Q94H/R138H/R169H/T345S)
Test: MHC binding assay (UV-ligand exchange, beta2m ELISA, peptide exchange yield)
Conditions: binding to HLA-A*02:01
From the text: Candidate peptides for T cell based therapies according to the present invention were further tested for their MHC binding capacity (affinity). The individual peptide-MHC complexes were produced by UV-ligand exchange, where a UV-sensitive peptide is cleaved upon UV-irradiation, and exchanged with the peptide of interest as analyzed. Only peptide candidates that can effectively bind and stabilize the peptide-receptive MHC molecules prevent dissociation of the MHC complexes. To determine the yield of the exchange reaction, an ELISA was performed based on the detection of the light chain ([…]) of stabilized MHC complexes. The assay was performed as generally described in Rodenko et al. (Rodenko et al., 2006).
96 well MAXISorp plates (NUNC) were coated over night with 2 ug/ml streptavidin in PBS at room temperature, washed 4× and blocked for 1 h at 37° C. in 2% BSA containing blocking buffer. Refolded HLA-A*02:01/MLA-001 monomers served as standards, covering the range of 15-500 ng/ml. Peptide-MHC monomers of the UV-exchange reaction were diluted 100 fold in blocking buffer. Samples were incubated for 1 h at 37° C., washed four times, incubated with 2 ug/ml HRP conjugated anti-β2m for 1 h at 37° C., washed again and detected with TMB solution that is stopped with […]. Absorption was measured at 450 nm. Candidate peptides that show a high exchange yield (preferably higher than 50%, most preferred higher than 75%) are generally preferred for a generation and production of antibodies or fragments thereof, and/or T cell receptors or fragments thereof, as they show sufficient avidity to the MHC molecules and prevent dissociation of the MHC complexes.

Peptide exchange (MHC class I binding score, peptide exchange yield) | Substance
“++++” (≥75% = ++++) | 88 (KLDIKVETV; listed as Homo sapiens) [compound 88]
“++++” (≥75% = ++++) | 134 (GVAGGSILKGV; listed as Homo sapiens) [compound 134]
“+++” (≥50 = +++) | 108 (SLAELVPGVGGI; listed as Homo sapiens) [compound 108]
“+++” (≥50 = +++) | 71 (RLWTEIPTAI; listed as Homo sapiens) [compound 71]
“+++” (≥50 = +++) | 57 (NLLEKENYL; listed as Homo sapiens) [compound 57]
“+++” (≥50 = +++) | 74 (YLMGFLHAV; listed as Homo sapiens) [compound 74]
“++” (≥20% = ++) | 58 (AMADKMDMSL; listed as Homo sapiens) [compound 58]
“+++” (≥50 = +++) | 149 (YQFDKVGILTL; listed as Homo sapiens) [compound 149]
“+++” (≥50 = +++) | 151 (SAQGSDVSLTACKV; listed as Homo sapiens) [compound 151]
“++” (≥20% = ++) | 131 (KLLDVVHPA; listed as Homo sapiens) [compound 131]
“+++” (≥50 = +++) | 118 (LLADLKTMV; listed as Homo sapiens) [compound 118]
“+++” (≥50 = +++) | 72 (YLLDYPNNLL; listed as Homo sapiens) [compound 72]
“+++” (≥50 = +++) | 102 (KILVSLIEV; listed as Homo sapiens) [compound 102]
“++” (≥20% = ++) | 96 (KLYSRLVYV; listed as Homo sapiens) [compound 96]
“+++” (≥50 = +++) | 61 (KLLKLFQGV; listed as Homo sapiens) [compound 61]
“++” (≥20% = ++) | 80 (QVDEVVDIMRV; listed as Homo sapiens) [compound 80]
“+++” (≥50 = +++) | 94 (KSMDIVLTV; listed as Homo sapiens) [compound 94]
“+++” (≥50 = +++) | 50 (TLMAEMHVV; listed as Homo sapiens) [compound 50]
“+++” (≥50 = +++) | 8 (ALMLQGVDLL; listed as Homo sapiens) [compound 8]
“+++” (≥50 = +++) | 24 (VLDGVLMEL; listed as Homo sapiens) [compound 24]
“+++” (≥50 = +++) | 89 (SLIEYEFRV; listed as Homo sapiens) [compound 89]

Peptide exchange (MHC class I binding score, peptide exchange yield) | Substance
“++” (≥20% = ++) | 82 (QLYEEPDTKL; listed as Homo sapiens) [compound 82]
“+++” (≥50 = +++) | 15 (LQLDKEFQL; listed as Homo sapiens) [compound 15]
“+++” (≥50 = +++) | 20 (YLKDGDVML; listed as Homo sapiens) [compound 20]
“+” (≥10% = +) | 30 (GLSSAYGGL; listed as Homo sapiens) [compound 30]
“+++” (≥50 = +++) | 184 (SLLDENNVSSYL; listed as Homo sapiens) [compound 184]
“+++” (≥50 = +++) | 67 (SLNDLEKDVMLL; listed as Homo sapiens) [compound 67]
“++” (≥20% = ++) | 51 (QVWEIQHTV; listed as Homo sapiens) [compound 51]
“++++” (≥75% = ++++) | 28 (ALTEIQEFI; listed as Homo sapiens) [compound 28]
“+++” (≥50 = +++) | 148 (RLLENMTEVV; listed as Homo sapiens) [compound 148]
“+++” (≥50 = +++) | 137 (QLTEIKPLL; listed as Homo sapiens) [compound 137]
“++++” (≥75% = ++++) | 156 (SLMMTIINL; listed as Homo sapiens) [compound 156]
“++” (≥20% = ++) | 97 (ALWWGVVTV; listed as Homo sapiens) [compound 97]
“+++” (≥50 = +++) | 190 (AMAEMVLQV; listed as Homo sapiens) [compound 190]
“++” (≥20% = ++) | 116 (LVYQFVHPI; listed as Homo sapiens) [compound 116]
“+++” (≥50 = +++) | 76 (YLIGEKQHYL; listed as Homo sapiens) [compound 76]
“+++” (≥50 = +++) | 23 (FLDANGHFV; listed as Homo sapiens) [compound 23]
“++” (≥20% = ++) | 176 (RTLDKVLEV; listed as Homo sapiens) [compound 176]
“++” (≥20% = ++) | 77 (SLLKRDFGA; listed as Homo sapiens) [compound 77]
“+++” (≥50 = +++) | 29 (QMLDVAIRV; listed as Homo sapiens) [compound 29]
“++” (≥20% = ++) | 128 (MLDDRAYLV; listed as Homo sapiens) [compound 128]
“+++” (≥50 = +++) | 161 (FLKNELDNV; listed as Homo sapiens) [compound 161]

Peptide exchange (MHC class I binding score, peptide exchange yield) | Substance
“++” (≥20% = ++) | 56 (VLFTDEGVPKFL; listed as Homo sapiens) [compound 56]
“++++” (≥75% = ++++) | 93 (SLQELRLLL; listed as Homo sapiens) [compound 93]
“++” (≥20% = ++) | 130 (GLGGSQLIDTHL; listed as Homo sapiens) [compound 130]
“+++” (≥50 = +++) | 83 (LTIEDGIFEV; listed as Homo sapiens) [compound 83]
“+++” (≥50 = +++) | 36 (GLLESPSIFNFTA; listed as Homo sapiens) [compound 36]
“+++” (≥50 = +++) | 129 (VLIDVLKEL; listed as Homo sapiens) [compound 129]
“+++” (≥50 = +++) | 33 (ALWEKNTHL; listed as Homo sapiens) [compound 33]
“+++” (≥50 = +++) | 185 (VLYTGVVRV; listed as Homo sapiens) [compound 185]
“+++” (≥50 = +++) | 126 (TLAKYLMEL; listed as Homo sapiens) [compound 126]
“+++” (≥50 = +++) | 16 (VLVDQSWVL; listed as Homo sapiens) [compound 16]
“+++” (≥50 = +++) | 99 (KLLEVDLDTV; listed as Homo sapiens) [compound 99]
“+++” (≥50 = +++) | 168 (GLIRFPLMTI; listed as Homo sapiens) [compound 168]
“+++” (≥50 = +++) | 45 (ALAELLHGA; listed as Homo sapiens) [compound 45]
“++” (≥20% = ++) | 117 (TLQPVDNSTISL; listed as Homo sapiens) [compound 117]
“++” (≥20% = ++) | 146 (ALSDETWGL; listed as Homo sapiens) [compound 146]
“++” (≥20% = ++) | 27 (LLADEDSSYL; listed as Homo sapiens) [compound 27]
“+++” (≥50 = +++) | 177 (ALLQGAIESV; listed as Homo sapiens) [compound 177]
“++++” (≥75% = ++++) | 164 (KMLDEILLQL; listed as Homo sapiens) [compound 164]
“++” (≥20% = ++) | 62 (YLAPENGYL; listed as Homo sapiens) [compound 62]
“+++” (≥50 = +++) | 167 (SVIDHIHLISV; listed as Homo sapiens) [compound 167]
